Consider one molecule from patent publication US20210040187A1 (INSTITUT PASTEUR, published 2021).

For the assay, the target named is T1, acetylcholine receptor alpha 7 sub-unit (AchR alpha7) (UniProt P36544 23-502).
T1 construct: whole, on cells
As to the kind of experiment: flow cytometry on AchR alpha7-expressing HEK293 cells, 30 min at 4 C.

T1 sequence (P36544 23-502): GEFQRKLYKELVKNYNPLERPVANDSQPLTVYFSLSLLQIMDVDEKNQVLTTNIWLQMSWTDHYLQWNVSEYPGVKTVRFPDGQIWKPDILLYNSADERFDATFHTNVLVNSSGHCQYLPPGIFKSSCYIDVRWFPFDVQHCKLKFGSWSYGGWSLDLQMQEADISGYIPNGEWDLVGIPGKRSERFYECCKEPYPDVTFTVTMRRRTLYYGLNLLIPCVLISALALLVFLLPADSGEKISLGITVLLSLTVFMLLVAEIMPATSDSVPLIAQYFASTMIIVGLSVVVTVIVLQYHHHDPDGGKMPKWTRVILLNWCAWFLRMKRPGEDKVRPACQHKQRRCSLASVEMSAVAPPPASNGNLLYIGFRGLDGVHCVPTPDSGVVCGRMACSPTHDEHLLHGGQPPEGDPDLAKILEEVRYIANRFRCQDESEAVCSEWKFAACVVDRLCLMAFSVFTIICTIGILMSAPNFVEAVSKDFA

B1: VHH2 (MA peptide, VHH A12, StrepTag, NV; lacking the RDP1 sequence) (VHH)
chain: MAEVQLQASGGGLAQPGGSLRLSVTVSGSIDVINNMAWYRQAPGNARELVATITSGFSTNYASSVKGRFTISRDNAKKAVYLQMNSLKPEDTADYYSKVHLIRLGAARAYDYWGQGTQVTVSGGGSAWSHPQFEKAAARRVNRSEPTQHNLRGTGREVSVTPQSGKIISSWEVHGQQTRL
On to B1, for which the binding result is “no binding (tested: 20 pg)”.
